Patent US20040059519A1

Assays:
[1] = target: Human chorionic gonadotropin (human) (UniProt P01215); test: bead sandwich, flow cytometry; capture B2 beads, no hCG (background)
[2] = target: Alpha fetoprotein (UniProt P02771); test: MAB602 capture beads, flow cytometry; AFP 0.0 ng/mL, anti-AFP probe
[3] = target: Alpha fetoprotein (UniProt P02771); test: MAB602 capture beads, flow cytometry; AFP 1000.0 ng/mL, anti-AFP probe
[4] = target: Alpha fetoprotein (UniProt P02771); test: MAB602 capture beads, flow cytometry; AFP 100.0 ng/mL, anti-AFP probe
[5] = target: Human chorionic gonadotropin (human) (UniProt P01215); test: bead sandwich, flow cytometry; capture B1 (AB633) beads, no hCG (background)
[6] = target: Alpha fetoprotein (UniProt P02771); test: MAB602 capture beads, flow cytometry; AFP 1.0 ng/mL, anti-AFP probe
[7] = target: Human chorionic gonadotropin (human) (UniProt P01215); test: bead sandwich, flow cytometry; capture B1 (AB633) beads, hCG 20.0 ug/mL
[8] = target: Alpha fetoprotein (UniProt P02771); test: MAB602 capture beads, flow cytometry; AFP 0.1 ng/mL, anti-AFP probe
[9] = target: Human chorionic gonadotropin (human) (UniProt P01215); test: bead sandwich, flow cytometry; capture B2 beads, hCG 20.0 ug/mL
[10] = target: Alpha fetoprotein (UniProt P02771); test: MAB602 capture beads, flow cytometry; AFP 10.0 ng/mL, anti-AFP probe

UniProt P02771, sequence (P02771 19-609 limits assumed): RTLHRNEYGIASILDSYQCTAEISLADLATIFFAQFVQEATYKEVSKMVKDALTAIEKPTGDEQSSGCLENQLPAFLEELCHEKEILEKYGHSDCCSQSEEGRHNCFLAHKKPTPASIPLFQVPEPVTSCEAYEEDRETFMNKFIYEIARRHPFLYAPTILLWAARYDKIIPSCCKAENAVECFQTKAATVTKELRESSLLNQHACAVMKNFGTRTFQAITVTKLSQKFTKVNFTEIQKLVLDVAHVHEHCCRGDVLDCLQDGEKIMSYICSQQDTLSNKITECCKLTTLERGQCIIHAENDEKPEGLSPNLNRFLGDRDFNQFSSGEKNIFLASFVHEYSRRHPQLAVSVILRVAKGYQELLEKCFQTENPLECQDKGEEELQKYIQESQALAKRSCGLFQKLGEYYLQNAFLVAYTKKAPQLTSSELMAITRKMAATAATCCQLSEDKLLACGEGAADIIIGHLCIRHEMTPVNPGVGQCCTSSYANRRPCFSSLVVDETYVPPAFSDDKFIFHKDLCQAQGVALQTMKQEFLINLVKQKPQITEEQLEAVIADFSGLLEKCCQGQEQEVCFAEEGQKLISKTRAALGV
UniProt P01215, sequence (P01215 25-116, chain 1 of 2, other chains not shown): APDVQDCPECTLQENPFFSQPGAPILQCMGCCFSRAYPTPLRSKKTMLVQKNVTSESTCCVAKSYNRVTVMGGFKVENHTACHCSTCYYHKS

MIF of Fm [1]: 56
MIF of Fm [2]: 48
MIF of Fm [3]: 52
MIF of Fm [4]: 48
MIF of Fm [5]: 33
MIF of Fm [6]: 48
MIF of Fm [7]: 107
MIF of Fm [8]: 48
MIF of Fm [9]: 886
MIF of Fm [10]: 48
Substance: MAB602 monoclonal anti-hCG antibody
